We go through 125 sequences from the supplement of paper PMC9112550, “Optimization of the antimicrobial peptide Bac7 by deep mutational scanning” (BMC Biology, 2022).

The data set concerns Escherichia coli TOP10. Description: shrunken log2 fold change of peptide-encoding DNA abundance (4.5 h post-induction vs induction); higher = less antimicrobial activity (less host growth inhibition). Conditions: time post-induction: 4.5 h; library: site-saturation at positions 5, 18, 19, 20.
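Note: peptides expressed intracellularly from a pBAD plasmid library in pooled LB shake-flask culture, induced with 0.3% L-arabinose, DNA abundance read by NGS, three biological replicates, DESeq2 with apeglm shrinkage.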

Consider RRIRMRPPRLPRPRPRPPRDPRP, for which the “shrunken log2 fold change” value was determined as 1.6.
As to RRIRKRPPRLPRPRPRPGAQPRP, the “shrunken log2 fold change” value was 0.496.
In the case of RRIRERPPRLPRPRPRPSPGPRP, the “shrunken log2 fold change” value is -0.00119.
As for RRIRDRPPRLPRPRPRPHRFPRP, the “shrunken log2 fold change” value worked out at 0.0062.
For RRIRVRPPRLPRPRPRPMPSPRP, the “shrunken log2 fold change” value was found to be 0.333.
For the sequence RRIRGRPPRLPRPRPRPSYGPRP, the “shrunken log2 fold change” value was -0.137.
Under RRIRTRPPRLPRPRPRPMHNPRP stands -0.503; under RRIRPRPPRLPRPRPRPVTSPRP, 0.0344.
With RRIRMRPPRLPRPRPRPLAFPRP the figure was 0.52.
Take RRIRCRPPRLPRPRPRPDYAPRP: the “shrunken log2 fold change” value was -0.278.
Take RRIRTRPPRLPRPRPRPGKIPRP: the “shrunken log2 fold change” value was 0.0168.
For RRIRGRPPRLPRPRPRPVNKPRP, the “shrunken log2 fold change” value amounted to 0.0892.
As to RRIRFRPPRLPRPRPRPSSIPRP, the “shrunken log2 fold change” value was -0.945.
Take RRIRTRPPRLPRPRPRPRTYPRP: the “shrunken log2 fold change” value is -0.288.
RRIRERPPRLPRPRPRPAGPPRP: the “shrunken log2 fold change” value is -0.0342.
For the sequence RRIRWRPPRLPRPRPRPGEEPRP, the “shrunken log2 fold change” value came to 0.387.
Under RRIRVRPPRLPRPRPRPLELPRP stands -0.103; under RRIRNRPPRLPRPRPRPPNSPRP, -0.072; under RRIRKRPPRLPRPRPRPLQTPRP, 0.182.
Under RRIRGRPPRLPRPRPRPDKQPRP stands 0.0252.
As to RRIRHRPPRLPRPRPRPCWVPRP, the “shrunken log2 fold change” value was -0.0013.
Consider RRIRPRPPRLPRPRPRPWGMPRP, for which the “shrunken log2 fold change” value was -0.128.
Take RRIRKRPPRLPRPRPRPITCPRP: the “shrunken log2 fold change” value was 0.0162.
On to RRIRIRPPRLPRPRPRPCYNPRP, for which the “shrunken log2 fold change” value is -0.329.
Regarding RRIRFRPPRLPRPRPRPGHIPRP, the “shrunken log2 fold change” value was -0.00306.
With RRIRERPPRLPRPRPRPQHPPRP, the “shrunken log2 fold change” value is -0.367.
As to RRIRSRPPRLPRPRPRPHVMPRP, the “shrunken log2 fold change” value was -0.103.
Take RRIRCRPPRLPRPRPRPIMQPRP: the “shrunken log2 fold change” value was -0.193.
As to RRIRLRPPRLPRPRPRPCFPPRP, the “shrunken log2 fold change” value was -0.206.
As to RRIRMRPPRLPRPRPRPVWDPRP, the “shrunken log2 fold change” value is -0.136.
Turning to RRIRKRPPRLPRPRPRPEFRPRP, the “shrunken log2 fold change” value was determined as 0.129.
As to RRIRTRPPRLPRPRPRPDSEPRP, the “shrunken log2 fold change” value is -0.182.
In the case of RRIRYRPPRLPRPRPRPRYQPRP, the “shrunken log2 fold change” value was -0.0935.
Take RRIRMRPPRLPRPRPRPYWEPRP: the “shrunken log2 fold change” value was -0.0124.
With RRIRIRPPRLPRPRPRPRQIPRP the figure was -0.212; with RRIRHRPPRLPRPRPRPWIQPRP, -0.0803; with RRIRYRPPRLPRPRPRPWYVPRP, -1.13.
As for RRIRHRPPRLPRPRPRPTERPRP, the “shrunken log2 fold change” value is 0.18.
Regarding RRIRMRPPRLPRPRPRPSHMPRP, the “shrunken log2 fold change” value is -0.146.
Under RRIRPRPPRLPRPRPRPFEWPRP stands -0.124; under RRIRPRPPRLPRPRPRPSELPRP, 0.0666; under RRIRYRPPRLPRPRPRPCVWPRP, -0.0563.
On to RRIRWRPPRLPRPRPRPKHAPRP, for which the “shrunken log2 fold change” value was found to be 0.222.
On to RRIRLRPPRLPRPRPRPHNHPRP, for which the “shrunken log2 fold change” value was -0.77.
Turning to RRIRHRPPRLPRPRPRPQWWPRP, the “shrunken log2 fold change” value was -0.0314.
RRIRKRPPRLPRPRPRPHDGPRP: the “shrunken log2 fold change” value was found to be 0.0431.
With RRIRHRPPRLPRPRPRPEYQPRP the figure was -0.3; with RRIRYRPPRLPRPRPRPSPEPRP, -0.458.
For RRIRVRPPRLPRPRPRPQLTPRP, the “shrunken log2 fold change” value was -0.0141.
Take RRIRYRPPRLPRPRPRPIQGPRP: the “shrunken log2 fold change” value was -0.0804.
For RRIRSRPPRLPRPRPRPQFDPRP, the “shrunken log2 fold change” value was -0.00423.
On to RRIRFRPPRLPRPRPRPVMPPRP, for which the “shrunken log2 fold change” value was -0.12.
On to RRIRRRPPRLPRPRPRPIRVPRP, for which the “shrunken log2 fold change” value came to 0.244.
As for RRIRARPPRLPRPRPRPYQCPRP, the “shrunken log2 fold change” value was -0.44.
On to RRIRHRPPRLPRPRPRPNKSPRP, for which the “shrunken log2 fold change” value was -0.252.
On to RRIRGRPPRLPRPRPRPVSGPRP, for which the “shrunken log2 fold change” value was 0.731.
RRIRFRPPRLPRPRPRPHHSPRP: the “shrunken log2 fold change” value is -0.883.
Take RRIRIRPPRLPRPRPRPMGNPRP: the “shrunken log2 fold change” value is 0.0077.
Consider RRIRWRPPRLPRPRPRPAMIPRP, for which the “shrunken log2 fold change” value was -0.0987.
With RRIRWRPPRLPRPRPRPWDTPRP, the “shrunken log2 fold change” value came to 0.0106.
For the sequence RRIRHRPPRLPRPRPRPPLVPRP, the “shrunken log2 fold change” value came out at 0.0953.
RRIRVRPPRLPRPRPRPVSHPRP: the “shrunken log2 fold change” value is 0.173.
With RRIRYRPPRLPRPRPRPICCPRP, the “shrunken log2 fold change” value was -0.137.
Turning to RRIRWRPPRLPRPRPRPQTGPRP, the “shrunken log2 fold change” value was -0.000887.
On to RRIRMRPPRLPRPRPRPATQPRP, for which the “shrunken log2 fold change” value was 1.14.
In the case of RRIRMRPPRLPRPRPRPGGFPRP, the “shrunken log2 fold change” value worked out at 1.06.
As to RRIRLRPPRLPRPRPRPFPKPRP, the “shrunken log2 fold change” value is -0.103.
As to RRIRLRPPRLPRPRPRPQHDPRP, the “shrunken log2 fold change” value is -0.0854.
Turning to RRIRTRPPRLPRPRPRPAPKPRP, the “shrunken log2 fold change” value is 0.371.
For the sequence RRIRERPPRLPRPRPRPRDIPRP, the “shrunken log2 fold change” value is -0.0401.
Regarding RRIRDRPPRLPRPRPRPNRMPRP, the “shrunken log2 fold change” value is -0.196.
Regarding RRIRKRPPRLPRPRPRPGQNPRP, the “shrunken log2 fold change” value amounted to 0.0264.
On to RRIRGRPPRLPRPRPRPSERPRP, for which the “shrunken log2 fold change” value worked out at 0.278.
With RRIRCRPPRLPRPRPRPYHFPRP the figure was -1.01.
In the case of RRIRKRPPRLPRPRPRPFALPRP, the “shrunken log2 fold change” value stood at 0.186.
With RRIRLRPPRLPRPRPRPSGQPRP, the “shrunken log2 fold change” value was -0.0893.
As for RRIRHRPPRLPRPRPRPPYWPRP, the “shrunken log2 fold change” value stood at 1.65.
With RRIRGRPPRLPRPRPRPMLSPRP the figure was 0.393; with RRIRHRPPRLPRPRPRPCQAPRP, -0.119; with RRIRSRPPRLPRPRPRPYNYPRP, -0.494.
Turning to RRIRLRPPRLPRPRPRPDKSPRP, the “shrunken log2 fold change” value was -0.118.
With RRIRIRPPRLPRPRPRPKGGPRP, the “shrunken log2 fold change” value amounted to 0.04.
On to RRIRHRPPRLPRPRPRPTTSPRP, for which the “shrunken log2 fold change” value is -0.146.
For RRIRERPPRLPRPRPRPKLWPRP, the “shrunken log2 fold change” value stood at 0.582.
Take RRIRPRPPRLPRPRPRPWWWPRP: the “shrunken log2 fold change” value is -0.00448.
Consider RRIRNRPPRLPRPRPRPVFAPRP, for which the “shrunken log2 fold change” value was -0.0312.
As for RRIRARPPRLPRPRPRPVHNPRP, the “shrunken log2 fold change” value turned out to be 0.11.
For the sequence RRIRHRPPRLPRPRPRPFFHPRP, the “shrunken log2 fold change” value is -0.454.
Turning to RRIRGRPPRLPRPRPRPAKCPRP, the “shrunken log2 fold change” value was -0.0198.
In the case of RRIRNRPPRLPRPRPRPPPQPRP, the “shrunken log2 fold change” value worked out at 0.931.
For the sequence RRIRCRPPRLPRPRPRPSYGPRP, the “shrunken log2 fold change” value is -0.627.
As to RRIRERPPRLPRPRPRPGGMPRP, the “shrunken log2 fold change” value was -0.02.
With RRIRQRPPRLPRPRPRPPCGPRP, the “shrunken log2 fold change” value turned out to be 0.184.
Take RRIRARPPRLPRPRPRPMEHPRP: the “shrunken log2 fold change” value is -0.223.
As to RRIRGRPPRLPRPRPRPYIRPRP, the “shrunken log2 fold change” value was -0.111.
In the case of RRIRWRPPRLPRPRPRPIIPPRP, the “shrunken log2 fold change” value is -0.104.
As for RRIRKRPPRLPRPRPRPIPWPRP, the “shrunken log2 fold change” value amounted to 0.466.
On to RRIRCRPPRLPRPRPRPAHVPRP, for which the “shrunken log2 fold change” value is 0.019.
For the sequence RRIRNRPPRLPRPRPRPGQLPRP, the “shrunken log2 fold change” value is -0.126.
Turning to RRIRHRPPRLPRPRPRPKSRPRP, the “shrunken log2 fold change” value is -0.0231.
Under RRIRDRPPRLPRPRPRPKQNPRP stands 0.277; under RRIRPRPPRLPRPRPRPGPYPRP, -0.0184.
RRIRNRPPRLPRPRPRPASQPRP: the “shrunken log2 fold change” value turned out to be 0.545.
Regarding RRIRDRPPRLPRPRPRPIIYPRP, the “shrunken log2 fold change” value is -0.313.
With RRIRRRPPRLPRPRPRPWFEPRP the figure was 0.0607; with RRIRARPPRLPRPRPRPDYSPRP, 0.00409.
For the sequence RRIRHRPPRLPRPRPRPLLPPRP, the “shrunken log2 fold change” value was -0.0821.
As to RRIRYRPPRLPRPRPRPEGYPRP, the “shrunken log2 fold change” value is -0.01.
In the case of RRIRCRPPRLPRPRPRPTYVPRP, the “shrunken log2 fold change” value was -0.259.
With RRIRTRPPRLPRPRPRPTCMPRP the figure was -0.262; with RRIRGRPPRLPRPRPRPHYHPRP, -0.421; with RRIRQRPPRLPRPRPRPYFNPRP, -0.82.
RRIRRRPPRLPRPRPRPLRLPRP: the “shrunken log2 fold change” value was found to be 0.59.
As to RRIRGRPPRLPRPRPRPITWPRP, the “shrunken log2 fold change” value is -0.0883.
Consider RRIRWRPPRLPRPRPRPNVFPRP, for which the “shrunken log2 fold change” value was -0.304.
For RRIRDRPPRLPRPRPRPDWWPRP, the “shrunken log2 fold change” value was 0.0503.
Regarding RRIRGRPPRLPRPRPRPKFSPRP, the “shrunken log2 fold change” value was determined as 0.392.
Regarding RRIRLRPPRLPRPRPRPRCAPRP, the “shrunken log2 fold change” value is 0.504.
Under RRIRKRPPRLPRPRPRPCKKPRP stands -0.0301.
For RRIRPRPPRLPRPRPRPIEIPRP, the “shrunken log2 fold change” value was -0.0794.
As to RRIRYRPPRLPRPRPRPELRPRP, the “shrunken log2 fold change” value is 0.363.
As to RRIRWRPPRLPRPRPRPYTIPRP, the “shrunken log2 fold change” value was -0.606.
On to RRIRERPPRLPRPRPRPWNIPRP, for which the “shrunken log2 fold change” value is -0.308.
As for RRIRLRPPRLPRPRPRPTEQPRP, the “shrunken log2 fold change” value is 0.0272.
With RRIRQRPPRLPRPRPRPMIHPRP the figure was -0.471.
